Measurements reported in patent publication US11421026B2, “Antibodies that bind human cannabinoid 1 (CB1) receptor” (BIRD ROCK BIO, Inc., priority 2015, dated 2022).

B1: PA2LR3-P4C6: phage-derived CB1 binding IgG clone (antibody, V domains shown)
VH: EVQLQQSGAELVRPGSSVKISCKASGYAFSYYWMNWVKQRPGQGLEWIGQIYPGDGDTNYNGKFKGKATLTADKSSSTAYMQLSSLTSEDSAVYFCARSHGNYFPYWGQGTLVTVSA
VL: DIVITQSPAIVSASLGERVTMTCTASSSVSSSYLHWYQQKPGSSPKLWIYSTSNLASGVPARFSGSGSGTSYSLTISSMEAEDAATYYCQQWSSYPLTFGAGTKLEIK
modifications: PA2LR3-P4C6 Heavy Chain Variable region; PA2LR3-P4C6 Light Chain Variable region
B2: PA2LR3-P6G7: anti-CB1 antibody; HC variable SEQ ID NO: 58, LC variable SEQ ID NO: 62 (antibody, V domains shown)
VH: EVQLQQSGAELVRPGSSVKISCKASGFAFSNYWMNWVKQRPGQGLEWIGQIYPGDGDTNFNGKFKGRAILTADISSNTAYMQLSSLTSEDSAVYFCARSHGNYFPYWGQGTLVTVSA
VL: DIVLTQSPAIMSASLGERVTMTCTASSSVSSSYLHWYQQKPGSSPKLWIYSTSNLASGVPARFSGSGSGTSYSLTISSMEAEDAATYYCHQHHRSPPTFGAGTKLELK
modifications: PA2LR3-P6G7 Heavy chain variable region; PA2LR3-P6G7 Light chain variable region
B3: PA2LR3-P4B5: anti-CB1 antibody; HC variable SEQ ID NO: 26, LC variable SEQ ID NO: 30 (antibody, V domains shown)
VH: EVQLQQSGAELVRPGSSVKISCKASGYAFSYYWMNWVKQRPGQGLEWIGQIYPGDGDTNYSGRFKGKATLTADKSSSTAYIQLSSLTSEDSAVYFCARSHGNYFPYWGQGTLVTVSA
VL: DIVLNQSPAIMSASLGERVTMTCTASSSVSSSYLHWYQQKPGSSPKLWIYSTSNLASGVPARFSGSGSGTSYSLTISSMEAEDAATYYCHQYHRSPLTFGAGTKLEIK
modifications: PA2LR3- P4B5 Heavy chain variable region; PA2LR3- P4B5 Light chain variable region
B4: PA2LR3-P4G10: phage-derived CB1 binding IgG clone (antibody, V domains shown)
VH: EVQLQQFGAELVRPGSSVKISCKASGYAFSYYWMNWVKQRPGQGLEWIGQIYPGDGDTNYNGKFKGKATLTADKSSSTAYMQLSSLTSEDSAVYFCARSHGNYFAYWGQGTLVTVSA
VL: DIVLTQSPAIMSASLGERVTMTCTASSSVSSSYLHWYQQKPGSSPKLWIYSTSNLASGVPARFSGSGSGTSYSLTISSMEAEDAATYYCQQWSSNPLTFGAGTKLELK
modifications: PA2LR3-P4G10 Heavy Chain Variable region; PA2LR3-P4G10 Light Chain Variable region
B5: PA2LR3-P5E7: phage-derived CB1 antibody clone (antibody, V domains shown)
VH: EVQLQQSGAELVRPGSSVKISCKASGYAFSNYWMNWVKQRPGQGLEWIGQIYPGDGDTNFNGKFKGRAILTADISSNTAYMQLSSLTSEDSAVYFCARSHGNYFPYWGQGTLVTVSA
VL: DIVLTQSPTTMAASPGEKITITCSASSSISSNYLHWYQQKPGFSPKLLIYRTSTLASGVPARFSGSGSGTSYSLTISSMEAEDAATYYCHQYHRSPHTFGSGTKLEIK
modifications: PA2LR3-P5E7 Heavy Chain Variable region; PA2LR3-P5E7 Light Chain Variable region
notes: phage-derived CB1 antibody clone
B6: PA2LR3-P3A8: phage-derived CB1 antibody clone (antibody, V domains shown)
VH: EVQLQQSGAELVRPGSSVKISCKASGYAFSYYWMNWVKQRPGQGLEWIGQIYPGDGDTNYNGKVKGKATLTADKSSSTAYMQLSSLTSEDSAVYFCARSHGNYFAYWGQGTLVTVSA
VL: DIVMTQSPAIMSASLGERVTMTCTASSSVSSSYLHWYQQKPGSSPKLWIYSTSNLASGVPARFSGSGSGTSYSLTISSMEAEDAATYYCQQWSSNPLTFGAGTKLELK
modifications: PA2LR3-P3A8 Heavy Chain Variable Region; PA2LR3-P3A8 Light Chain Variable Region
notes: as for B5
B7: PA2LR3-P3F8: phage-derived CB1 antibody clone (antibody, V domains shown)
VH: EVQLQQSGAELVRPGSSVKISCKASGYAFSNYWMNWVKQRPGQGLEWIGQIYPGDGDTNYNGNFKGKATLTADKSSSTAYMQLSSLTSEDSAVYFCARSHGNYFPYWGQGTLVTVSA
VL: DIVLTQSPAIMSASLGERVTMTCTASSSVSSSYLHWYQQKPGSSPKLWIYSTSNLASGVPARFSGSGSGTSYSLTISSMEAEDAATYYCQQWSSYPLTFGAGTKLELK
modifications: PA2LR3-P3F8 Heavy Chain Variable Region; PA2LR3-P3F8 Light Chain Variable Region
notes: as for B5
B8: PA2LR3-P6B12: anti-CB1 antibody; HC variable SEQ ID NO: 50, LC variable SEQ ID NO: 54 (antibody, V domains shown)
VH: EVQLQQSGAELVRPGSSVKISCKASGYAFSYYWMNWVKQRPGQGLEWIGQIYPGDGDTNYNGKFKGKATLTADKSSSTAYMQLSSLTSEDSAVYFCARSHGNYFAYWGQGTLVTVSA
VL: QIVLTQSPAIMSASLGERVTMTCTASSSVSSSYLHWYQQKPGSSPKLWIYSTSNLASGVPARFSGSGSGTSYSLTISSMEAEDAATYYCHQYHRSPLAFGAGTKLELK
modifications: PA2LR3-P6B12 Heavy chain variable region; PA2LR3-P6B12 Light chain variable region
B9: PA2LR3-P4B1: anti-CB1 antibody; HC variable SEQ ID NO: 42, LC variable SEQ ID NO: 46 (antibody, V domains shown)
VH: EVQLQQSGAELVRPGSSVKISCKASGFAFSNYWMNWVKQRPGQGLEWIGQIYPGDGDTNFNGKFKGRAILTADISSNTAYMQLSSLTSEDSAVYFCARSHGNYFPYWGQGTLVTVSA
VL: QIVLTQSPAIMSASLGERVTMTCTASSSVSSSYLHWYQQKPGSSPKLWIYSTSNLASGVPARFSGSGSGTSYSLTISSMEAEDAATYYCHQYHRSPLTFGAGTKLELK
modifications: PA2LR3-P4B1 Heavy chain variable region; PA2LR3-P4B1 Light chain variable region

Target: T1, CB1 surface expression (CB1 TRex-CHO / TRex-293 cells) (Homo sapiens, UniProt P21554)
T1 construct: pcDNA4/TO native full length human CB1 receptor construct was transfected into tetracycline inducible system Trex-CHO and Trex-293 cells; expressed in transfected cells; tetracycline induced
Assay type: cell-based
Conditions: for CB1 receptor internalization induced by the substance alone: 1 hour; for effect on WIN55,212 induced CB1 receptor internalization: antibody 300 nM pre-treatment, 1 μM WIN55,212 1 hour
Procedure: 5×10^5 cells/well stably expressing CB1 TRex-CHO cells were seeded in a 6-well plate. Tetracycline (1 μg/ml) was added to culture medium for 24 hours to induce CB1 expression. On the day of the experiment, cells were serum starved for 2 hours. Cells were then pre-incubated with CB1 antibody (300 nM), AM6545 (CB1 neutral antagonist) and negative control (BRIL binder) for half an hour. […] Surface expression of CB1 was stained with anti-CB1 N-terminus mouse monoclonal antibody from R&D and the mean fluorescence intensity (MFI) was determined using flow cytometry.
The impact of CB1 antibody on receptor internalization was also investigated. […] Cells were harvested and stained with anti-CB1 N-terminus mouse monoclonal antibody (R&D).
On the day of the experiment, cells were serum starved for 2 hours. Cells were then pre-incubated with CB1 antibody (300 nM), AM6545 (CB1 neutral antagonist) and negative control (BRIL binder) for half an hour. […] Surface expression of CB1 was stained with anti-CB1 N-terminus mouse monoclonal antibody from R&D and the mean fluorescence intensity (MFI) was determined using flow cytometry (Guava).

T1 sequence (P21554 whole entry): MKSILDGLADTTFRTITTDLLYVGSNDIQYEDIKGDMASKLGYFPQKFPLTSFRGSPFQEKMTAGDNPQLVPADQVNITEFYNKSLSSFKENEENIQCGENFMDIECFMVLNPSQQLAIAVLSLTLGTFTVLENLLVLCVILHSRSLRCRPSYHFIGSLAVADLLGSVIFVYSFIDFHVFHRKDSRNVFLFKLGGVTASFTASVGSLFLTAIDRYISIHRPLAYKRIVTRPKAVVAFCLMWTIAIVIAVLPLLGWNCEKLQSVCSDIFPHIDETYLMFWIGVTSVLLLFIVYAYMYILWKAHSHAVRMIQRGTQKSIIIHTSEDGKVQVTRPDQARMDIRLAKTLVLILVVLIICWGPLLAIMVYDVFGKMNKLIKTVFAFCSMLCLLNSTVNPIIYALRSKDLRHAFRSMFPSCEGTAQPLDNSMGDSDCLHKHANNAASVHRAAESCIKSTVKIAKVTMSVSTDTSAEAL

Molecule | CB1 receptor internalization induced by the substance alone | effect on WIN55,212 induced CB1 receptor internalization
B1 | do not induce | do not block
B2 | do not induce | do not block
B3 | do not induce | do not block
B4 | do not induce | do not block
B5 | do not induce | do not block
B6 | do not induce | do not block
B7 | do not induce | do not block
B8 | do not induce | do not block
B9 | do not induce | do not block
